# PMC7170535, “Inter-α-inhibitor heavy chain-1 has an integrin-like 3D structure mediating immune regulatory activities and matrix stabilization during ovulation” (The Journal of Biological Chemistry, 2020)
# T1: recombinant inter-α-inhibitor heavy chain 1 (rHC1), D298A MIDAS mutant (human, UniProt P19827 35-672, D298A)
# T1 construct: source: expressed and purified as described previously (58)
# T1 sequence (looked up): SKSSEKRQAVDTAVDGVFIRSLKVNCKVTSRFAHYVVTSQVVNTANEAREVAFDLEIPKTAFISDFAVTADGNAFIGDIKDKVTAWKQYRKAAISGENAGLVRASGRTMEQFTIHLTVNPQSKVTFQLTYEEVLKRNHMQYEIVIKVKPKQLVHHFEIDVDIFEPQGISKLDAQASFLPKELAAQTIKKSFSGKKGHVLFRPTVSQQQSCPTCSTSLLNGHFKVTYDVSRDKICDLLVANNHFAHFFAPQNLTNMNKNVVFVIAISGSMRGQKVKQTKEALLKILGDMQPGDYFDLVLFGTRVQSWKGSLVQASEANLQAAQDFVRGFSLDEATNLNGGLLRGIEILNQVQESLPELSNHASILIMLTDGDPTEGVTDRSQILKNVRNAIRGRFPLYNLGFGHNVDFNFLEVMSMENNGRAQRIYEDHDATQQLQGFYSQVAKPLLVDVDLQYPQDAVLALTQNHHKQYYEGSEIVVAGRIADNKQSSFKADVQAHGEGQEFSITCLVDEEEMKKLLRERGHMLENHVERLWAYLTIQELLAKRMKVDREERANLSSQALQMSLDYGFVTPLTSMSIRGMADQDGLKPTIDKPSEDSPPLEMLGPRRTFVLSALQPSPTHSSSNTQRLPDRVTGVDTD
# B1: recombinant inter-α-inhibitor heavy chain 1 (rHC1), wild type (natural protein, human, UniProt P19827 35-672, looked up)
# chain: SKSSEKRQAVDTAVDGVFIRSLKVNCKVTSRFAHYVVTSQVVNTANEAREVAFDLEIPKTAFISDFAVTADGNAFIGDIKDKVTAWKQYRKAAISGENAGLVRASGRTMEQFTIHLTVNPQSKVTFQLTYEEVLKRNHMQYEIVIKVKPKQLVHHFEIDVDIFEPQGISKLDAQASFLPKELAAQTIKKSFSGKKGHVLFRPTVSQQQSCPTCSTSLLNGHFKVTYDVSRDKICDLLVANNHFAHFFAPQNLTNMNKNVVFVIDISGSMRGQKVKQTKEALLKILGDMQPGDYFDLVLFGTRVQSWKGSLVQASEANLQAAQDFVRGFSLDEATNLNGGLLRGIEILNQVQESLPELSNHASILIMLTDGDPTEGVTDRSQILKNVRNAIRGRFPLYNLGFGHNVDFNFLEVMSMENNGRAQRIYEDHDATQQLQGFYSQVAKPLLVDVDLQYPQDAVLALTQNHHKQYYEGSEIVVAGRIADNKQSSFKADVQAHGEGQEFSITCLVDEEEMKKLLRERGHMLENHVERLWAYLTIQELLAKRMKVDREERANLSSQALQMSLDYGFVTPLTSMSIRGMADQDGLKPTIDKPSEDSPPLEMLGPRRTFVLSALQPSPTHSSSNTQRLPDRVTGVDTD
# notes: Monomer in EDTA, monomer-dimer equilibrium in Mg2+ or Mn2+; also called rHC1 (WT); WT rHC1; source: expressed and purified as described previously (58)
# B2: recombinant inter-α-inhibitor heavy chain 1 (rHC1), ΔvWFA mutant lacking residues 288-478 (natural protein, human, UniProt P19827 35-672, looked up)
# chain: SKSSEKRQAVDTAVDGVFIRSLKVNCKVTSRFAHYVVTSQVVNTANEAREVAFDLEIPKTAFISDFAVTADGNAFIGDIKDKVTAWKQYRKAAISGENAGLVRASGRTMEQFTIHLTVNPQSKVTFQLTYEEVLKRNHMQYEIVIKVKPKQLVHHFEIDVDIFEPQGISKLDAQASFLPKELAAQTIKKSFSGKKGHVLFRPTVSQQQSCPTCSTSLLNGHFKVTYDVSRDKICDLLVANNHFAHFFAPQNLTLLVDVDLQYPQDAVLALTQNHHKQYYEGSEIVVAGRIADNKQSSFKADVQAHGEGQEFSITCLVDEEEMKKLLRERGHMLENHVERLWAYLTIQELLAKRMKVDREERANLSSQALQMSLDYGFVTPLTSMSIRGMADQDGLKPTIDKPSEDSPPLEMLGPRRTFVLSALQPSPTHSSSNTQRLPDRVTGVDTD
# notes: source: expressed and purified as described previously (58)
# B3: vitronectin (natural protein, UniProt P04004 20-478, looked up)
# chain: DQESCKGRCTEGFNVDKKCQCDELCSYYQSCCTDYTAECKPQVTRGDVFTMPEDEYTVYDDGEEKNNATVHEQVGGPSLTSDLQAQSKGNPEQTPVLKPEEEAPAPEVGASKPEGIDSRPETLHPGRPQPPAEEELCSGKPFDAFTDLKNGSLFAFRGQYCYELDEKAVRPGYPKLIRDVWGIEGPIDAAFTRINCQGKTYLFKGSQYWRFEDGVLDPDYPRNISDGFDGIPDNVDAALALPAHSYSGRERVYFFKGKQYWEYQFQHQPSQEECEGSSLSAVFEHFAMMQRDSWEDIFELLFWGRTSAGTRQPQFISRDWHGVPGQVDAAMAGRIYISGMAPRPSLAKKQRFRHRNRKGYRSQRGHSRGRNQNSRRPSRATWLSLFSSEESNLGANNYDDYRMDWLVPATCEPIQSVFFFSGDKYYRVNLRTRRVDTVDPPYPRSIAQYWLGCPAPGHL
# notes: Vitronectin; source: bought: PeproTech
# Tests used:
# [1] = molecular target: B1; experiment: SPR; 1,000 RU rHC1 proteins immobilised on a C1 chip; cFN13–14 at 7.5-120 nM as analyte; HEPES-buffered saline pH 7.4, 0.05% Tween 20, no added metal ions or EDTA; 30 μl/min; single cycle kinetics, 1:1 Langmuir; conditions: both partners purified
# [2] = molecular target: B2; experiment: as above; conditions: both partners purified
# [3] = molecular target: T1, recombinant inter-α-inhibitor heavy …; experiment: as above; conditions: both partners purified
# [4] = molecular target: the molecule itself; experiment: AUC; equilibrium AUC; rHC1 at 4, 11 and 22 μM with 0.1, 0.5, 1 or 5 mM MgCl2; 20 °C; global fit to a monomer–dimer model; dimer to monomers
# [5] = molecular target: the molecule itself; experiment: SAXS; rHC1 proteins at 1.25, 2.5 and 5.0 mg/ml in HEPES-buffered saline pH 7.5 with 5 mM MgCl2
# [6] = molecular target: B3; experiment: SPR; 1,500 RU rHC1 proteins immobilised on a C1 chip by amide cross-linking; ligand as analyte; HEPES-buffered saline pH 7.5, 0.05% Tween 20, 10 mM EDTA; 50 μl/min; multicycle kinetics, 1:1 Langmuir; conditions: both partners purified
# [7] = molecular target: B1; experiment: SPR; 1,500 RU rHC1 proteins immobilised on a C1 chip by amide cross-linking; ligand as analyte; HEPES-buffered saline pH 7.5, 0.05% Tween 20, 2 mM Mg2+, 2 mM Mn2+; 50 μl/min; multicycle kinetics, 1:1 Langmuir; conditions: both partners purified
# [8] = molecular target: T1, recombinant inter-α-inhibitor heavy …; experiment: as above; conditions: both partners purified
# [9] = molecular target: B1; experiment: SPR; 1,500 RU rHC1 proteins immobilised on a C1 chip by amide cross-linking; ligand as analyte; HEPES-buffered saline pH 7.5, 0.05% Tween 20, 10 mM EDTA; 50 μl/min; multicycle kinetics, 1:1 Langmuir; conditions: both partners purified
# [10] = molecular target: T1, recombinant inter-α-inhibitor heavy …; experiment: as above; conditions: both partners purified
binder,measurement,setting,value
"fibronectin type III repeats 13 and 14 (cFN13–14) (domain or fragment, human, UniProt P02751-1 1812-1991, looked up, Fibronectin, human, amino acid residues 1812-1991 (type III repeats 13 and 14); Mass spectrometry matched the construct with the N-terminal methionine removed; the monomeric protein was separated from dimeric cFN13–14 on heparin; source: E. coli BL21(DE3) pLysS, purified (nickel Sepharose, HisTrap HP, HiTrap heparin HP; monomeric form)) ENVSPPRRARVTDATETTITISWRTKTETITGFQVDAVPANGQTPIQRTIKPDVRSYTITGLQPGTDYKIYLYTLNDNARSSPVVIDASTAIDAPSNLRFLATTPNSLLVSWQPPRARITGYIIKYEKPGSPPREVVPRPRPGVTEATITGLEPGTEYTIYVIALKNNQKSEPLIGRKKT",Kd,[1],14 nM
same,Kd,[2],16.3 nM
same,Kd,[3],15.7 nM
B1,Kd,[4],35300 nM
same,stoichiometry N,[5],2
B2,Kd,[6],0.097 nM
"TGFβ2-LAP, small latent complex of TGFβ2 (complex) chain 1: LSTCSTLDMDQFMRKRIEAIRGQILSKLKLTSPPEDYPEPEEVPPEVISIYNSTRDLLQEKASRRAAACERERSDEEYYAKEVYKIDMPPFFPSENAIPPTFYRPYFRIVRFDVSAMEKNASNLVKAEFRVFRLQNPKARVPEQRIELYQILKSKDLTSPTQRYIDSKVVKTRAEGEWLSFDVTDAVHEWLHHKDRNLGFKISLHCPCCTFVPSNNYIIPNKSEELEARFAGIDGTSTYTSGDQKTIKSTRKKNSGKTPHLLLMLLPSYRLESQQTNRRKKR chain 2: ALDAAYCFRNVQDNCCLRPLYIDFKRDLGWKWIHEPKGYNANFCAGACPYLWSSDTQHSRVLSLYNTINPEASASPCCVSQDLEPLTILYYIGKTPKIEQLSNMIVKSCKCS",Kd,[7],8.8 nM
same,Kd,[8],12.9 nM
B3,Kd,[9],0.192 nM
same,Kd,[10],0.138 nM
same,Kd,[7],0.118 nM
same,Kd,[8],0.096 nM
"TGFβ3-LAP, small latent complex of TGFβ3 (complex) chain 1: LSTCTTLDFGHIKKKRVEAIRGQILSKLRLTSPPEPTVMTHVPYQVLALYNSTRELLEEMHGEREEGCTQENTESEYYAKEIHKFDMIQGLAEHNELAVCPKGITSKVFRFNVSSVEKNRTNLFRAEFRVLRVPNPSSKRNEQRIELFQILRPDEHIAKQRYIGGKNLPTRGTAEWLSFDVTDTVREWLLRRESNLGLEISIHCPCHTFQPNGDILENIHEVMEIKFKGVDNEDDHGRGDLGRLKKQKDHHNPHLILMMIPPHRLDNPGQGGQRKKR chain 2: ALDTNYCFRNLEENCCVRPLYIDFRQDLGWKWVHEPKGYYANFCSGPCPYLRSADTTHSTVLGLYNTLNPEASASPCCVPQDLEPLTILYYVGRTPKVEQLSNMVVKSCKCS",Kd,[7],9.9 nM
same,Kd,[8],3.1 nM
